Assays:
[1] = target: T1, human PD-L1 Fc Chimera (R&D Systems, cat. no. 156-B7-100) (human, UniProt Q9NZQ7 19-239, biotinylated with Sulfo-NHS-LC-Biotin in ELISA and AlphaLISA; not biotinylated in SPR); experiment: SPR capture assay, control
T1 construct: bought; also called hPD-L1; biotinylated hPD-L1; not shown: Fc part of the bought Fc chimera, not described

[2] = target: T2, PD-L1 on PD-L1 expressing cells (IFNg-stimulated THP-1 cells; MDA-MB-231 cells) (UniProt Q9NZQ7 19-290, limits assumed); experiment: FACS, MDA-MB-231 cells, 0.625 µg/ml; negative control (buffer) 69
T2 construct: whole, on cells
T2 sequence (Q9NZQ7 19-290 limits assumed): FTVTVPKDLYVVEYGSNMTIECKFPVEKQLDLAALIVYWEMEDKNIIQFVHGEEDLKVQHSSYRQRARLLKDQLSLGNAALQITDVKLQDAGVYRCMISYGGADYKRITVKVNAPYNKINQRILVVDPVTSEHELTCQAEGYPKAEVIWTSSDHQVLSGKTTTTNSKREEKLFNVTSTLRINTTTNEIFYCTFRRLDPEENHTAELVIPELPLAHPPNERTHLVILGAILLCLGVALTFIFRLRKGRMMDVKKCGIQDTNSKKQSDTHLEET
Experimental: Cells incubated with buffer alone were used as negative controls. The cells were incubated for 1 h at 8° C. in the dark, washed twice with 100 μl staining buffer, and resuspended in 100 μl of staining buffer containing 2.5 μg/ml of a goat-anti-human IgG-Alexa488 (Molecular Probes, cat. no. A11013) or, for cells stained with the positive control antibody, goat anti-mouse IgG-Alexa647 antibody (Life Technologies, cat. No. A21236). The cells were incubated for 1 h at 8° C. in the dark, washed twice with 100 μl staining buffer and resuspended in 300 μl of staining buffer. Data from 10,000 cells were obtained using a FACS Calibur ([…]) and the data was analyzed using Flowing software 2.5.0 (Turku University). Mean fluorescence intensity (MFI) was used as a read out of binding capacity.

T1 sequence (Q9NZQ7 19-239, change not shown): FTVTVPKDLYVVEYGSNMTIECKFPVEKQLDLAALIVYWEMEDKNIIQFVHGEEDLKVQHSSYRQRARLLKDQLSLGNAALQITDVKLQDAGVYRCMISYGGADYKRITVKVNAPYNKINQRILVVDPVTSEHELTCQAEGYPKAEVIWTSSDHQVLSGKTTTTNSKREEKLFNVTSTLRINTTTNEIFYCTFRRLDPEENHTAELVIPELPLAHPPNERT

Binder	binding result [1]	MFI [2]
Lam (PD-1 binding monoclonal antibody with the CDR sequences of pembrolizumab) (antibody, human IgG4 S228P, kappa, V domains shown) VH: QVQLVQSGVEVKKPGASVKVSCKASGYTFTNYYMYWVRQAPGQGLEWMGGINPSNGGTNFNEKFKNRVTLTTDSSTTTAYMELKSLQFDDTAVYYCARRDYRFDMGFDYWGQGTTVTVSS VL: EIVLTQSPATLSLSPGERATLSCRASKGVSTSGYSYLHWYQQKPGQAPRLLIYLASYLESGVPARFSGSGSGTDFTLTISSLEPEDFAVYYCQHSRDLPLTFGGGTKVEIKR	no binding (tested: 100 or 500 nM PD-L1)	
Z15170-HCLam (bispecific antibody) heavy: not shown light: EIVLTQSPATLSLSPGERATLSCRASKGVSTSGYSYLHWYQQKPGQAPRLLIYLASYLESGVPARFSGSGSGTDFTLTISSLEPEDFAVYYCQHSRDLPLTFGGGTKVEIKRTVAAPSVFIFPPSDEQLKSGTASVVCLLNNFYPREAKVQWKVDNALQSGNSQESVTEQDSKDSTYSLSSTLTLSKADYEKHKVYACEVTHQGLSSPVTKSFNRGEC		161
HCLam-Z15170 (bispecific antibody) heavy: not shown light: EIVLTQSPATLSLSPGERATLSCRASKGVSTSGYSYLHWYQQKPGQAPRLLIYLASYLESGVPARFSGSGSGTDFTLTISSLEPEDFAVYYCQHSRDLPLTFGGGTKVEIKRTVAAPSVFIFPPSDEQLKSGTASVVCLLNNFYPREAKVQWKVDNALQSGNSQESVTEQDSKDSTYSLSSTLTLSKADYEKHKVYACEVTHQGLSSPVTKSFNRGEC		274
ipilimumab (Yervoy, Bristol-Myers Squibb) (antibody, V domains shown) VH: QVQLVESGGGVVQPGRSLRLSCAASGFTFSSYTMHWVRQAPGKGLEWVTFISYDGNNKYYADSVKGRFTISRDNSKNTLYLQMNSLRAEDTAIYYCARTGWLGPFDYWGQGTLVTVSS VL: not shown		64

Source: patent US20180312565A1 (Affibody, published 2018)
